Experimental data taken from US20090156525A1, “Low-Density Lipoprotein Receptor-Related Protein 2 Clears Amyloid-Beta Peptide A cross the Blood-Brain Barrier via Apolipoprotein J” (priority 2005, published 2009).

What was measured:
[1] = Brain clearance technique: clearance of radiolabelled tracer from brain ISF and across the BBB after microinjection into the caudate nucleus; type: in vivo; conditions: for clearance from the brain ISF: 40 nM tracer microinjected into brain ISF, FIG. 1A/1B
Protocol: The brain clearance technique was used to determine Aβ clearance across the BBB and from CSF, as previously described (Shibata et al., 2000; Deane et al., 2004). Briefly, 0.5 μl of ^125I-Aβ42 (40 nM), ^125I-apoJ (40 nM) or ^125I-Aβ-apoJ (40 nM) was microinjected into the caudate nucleus simultaneously with ^14C-inulin (an inert reference molecule as an index of interstitial fluid (ISF) bulk flow) and, after 30 minutes (a typical time point unless stated), the brain was removed and radiolabel was counted.
^125I-Aβ-apoJ complex was prepared by incubating ^125I-Aβ42 and apoJ at a molar ratio of 15 to 1 (^125I-Aβ42: apoJ) at 37° C. for 3 hours, and excess ^125I-Aβ42 was removed by ultrafiltration with a 30 kD molecular weight cut-off membrane.
(§1) Percentage ^125I-(TCA precipitable) recovery in brain=NB/NI×100. Where NB is the ^125I-(TCA precipitable) recovered in brain and NI is the ^125I-(TCA precipitable) injected into brain ISF or CSF. Total ^125I-(TCA precipitable) clearance from brain ISF consists of two components: clearance across the BBB and clearance via bulk flow of ISF. Therefore, clearance across the BBB was calculated from the difference between total ^125I-(TCA precipitable) clearance and ^14C-inulin clearance (ISF bulk flow) as described (Shibata et al., 2000). Similarly, the percentage ^125I-(TCA precipitable) recovery in brain after microinjection into the CSF=NB/NI×100.

[2] = CSF clearance study: microinjection into the lateral ventricle; type: in vivo; conditions: 40 nM; after 30 minutes; microinjection into the lateral ventricles; FIG. 1E
Protocol: In the CSF clearance studies, 0.5 μl of ^125I-apoJ (40 nM) was micro-injected into the right lateral ventricles (coordinates (mm) from bregma: antero-posterior −0.5, mediolateral +1.0, dorsoventral −2.2) simultaneously with ^14C-inulin (the inert reference molecule), the brain was removed after 30 minutes, and radiolabel was counted.
as §1

[3] = after microinjection into the brain, FIG. 1C

| Substance | clearance from the brain ISF [1] | clearance from brain relative to ^125I-Aβ42 (40 nM) ([1]; 40 nM, time-dependent clearance, FIG. 1B) | levels in plasma, compared to inulin [1, 3] | time dependent appearance of TCA precipitable radioactivity in CSF, compared to ^14C-inulin [1, 3] | clearance from the CSF as compared to ^14C-inulin [2] | clearance of ^125I-Aβ42 across the BBB ([1]; in vivo) | clearance via the ISF bulk flow ([1]; in vivo) |
| --- | --- | --- | --- | --- | --- | --- | --- |
| ^125I-apoJ: apolipoprotein J, an 80 kDa sulfated glycoprotein, ligand of LRP2, radioiodinated tracer | rapidly cleared | substantially faster | relatively increased | decreased | rapidly cleared |  |  |
| ^125I-Aβ42: amyloid-β peptide Aβ42, amyloidogenic with high β-sheet content, radioiodinated tracer [reference compound] |  |  |  |  |  | 22%±2% | no a significant change |
| inulin [^14C-inulin, reference compound] | slowly removed |  |  |  |  |  |  |
